B1: Pho-dRP (dsDNA)
DNA 1: GGCGACTAAGCCGGGC
DNA 2: AACGCCAGGGCCTCCC
DNA 3: GGGAGGCCCTGGCGTTGCCCGGCTTAGTCGCC
modifications: strand 1 3'-terminal C is FAP-dCMP (photoreactive exo-N-substituted dC); strand 2 carries 5'-dRP (phosphate-linked, from Ung-treated 5'-pU)
B2: Pho-Flap (dsDNA)
DNA 1: GGCGACTAAGCCGGGC
DNA 2: GATAACAACGCCAGGGCCTCCC
DNA 3: B1 DNA 3
modifications: strand 1 3'-terminal C is FAP-dCMP

Assays:
PARP1 = PARP1 (human, UniProt P09874 1-1014); test: photoaffinity crosslinking; 100 nM protein, 100 nM DNA, EDTA; UV photo-crosslinking, 100 nM 5'-32P photoreactive DNA, EDTA present, Pol beta carried over from probe synthesis, SDS-PAGE; binding buffer, pH and temperature not given in the material; settings: protein: recombinant; label: 5'-32P on strand 1; nicked duplex of 3 strands (upstream, downstream, template), blunt outer ends, 5'-dRP at nick
Chain of PARP1 (P09874 whole entry): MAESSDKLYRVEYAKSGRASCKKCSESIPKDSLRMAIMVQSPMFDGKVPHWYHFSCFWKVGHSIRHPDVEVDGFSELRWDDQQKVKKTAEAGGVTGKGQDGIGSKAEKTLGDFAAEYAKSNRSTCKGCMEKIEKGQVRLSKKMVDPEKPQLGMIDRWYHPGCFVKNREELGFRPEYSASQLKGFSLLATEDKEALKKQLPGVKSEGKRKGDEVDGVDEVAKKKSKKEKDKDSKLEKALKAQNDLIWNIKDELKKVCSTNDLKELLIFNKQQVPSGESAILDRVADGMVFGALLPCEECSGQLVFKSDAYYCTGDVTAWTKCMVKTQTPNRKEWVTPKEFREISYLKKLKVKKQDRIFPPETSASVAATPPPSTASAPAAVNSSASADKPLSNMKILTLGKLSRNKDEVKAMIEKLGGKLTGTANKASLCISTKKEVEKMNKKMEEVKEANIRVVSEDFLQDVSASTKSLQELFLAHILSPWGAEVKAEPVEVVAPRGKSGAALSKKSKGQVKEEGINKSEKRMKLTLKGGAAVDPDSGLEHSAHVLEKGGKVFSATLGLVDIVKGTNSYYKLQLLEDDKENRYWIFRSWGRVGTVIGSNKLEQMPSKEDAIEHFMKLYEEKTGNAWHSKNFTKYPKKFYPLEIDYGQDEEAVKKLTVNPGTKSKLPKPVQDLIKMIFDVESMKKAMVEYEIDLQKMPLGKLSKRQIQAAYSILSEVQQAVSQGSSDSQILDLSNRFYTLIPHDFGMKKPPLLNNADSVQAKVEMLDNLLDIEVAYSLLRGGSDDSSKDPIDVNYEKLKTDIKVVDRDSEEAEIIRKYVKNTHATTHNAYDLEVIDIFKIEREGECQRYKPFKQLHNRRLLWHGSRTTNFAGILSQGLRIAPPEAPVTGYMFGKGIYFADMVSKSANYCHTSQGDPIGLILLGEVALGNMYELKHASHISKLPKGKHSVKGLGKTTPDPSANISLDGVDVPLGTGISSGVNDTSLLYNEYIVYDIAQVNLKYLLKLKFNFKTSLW

PARP2 = PARP2 (mouse (murine), UniProt O88554 1-559); test: as above; settings: protein: recombinant; label: 5'-32P on strand 1; nicked duplex of 3 strands (upstream, downstream, template), blunt outer ends, 5'-dRP at nick
Chain of PARP2 (O88554 whole entry): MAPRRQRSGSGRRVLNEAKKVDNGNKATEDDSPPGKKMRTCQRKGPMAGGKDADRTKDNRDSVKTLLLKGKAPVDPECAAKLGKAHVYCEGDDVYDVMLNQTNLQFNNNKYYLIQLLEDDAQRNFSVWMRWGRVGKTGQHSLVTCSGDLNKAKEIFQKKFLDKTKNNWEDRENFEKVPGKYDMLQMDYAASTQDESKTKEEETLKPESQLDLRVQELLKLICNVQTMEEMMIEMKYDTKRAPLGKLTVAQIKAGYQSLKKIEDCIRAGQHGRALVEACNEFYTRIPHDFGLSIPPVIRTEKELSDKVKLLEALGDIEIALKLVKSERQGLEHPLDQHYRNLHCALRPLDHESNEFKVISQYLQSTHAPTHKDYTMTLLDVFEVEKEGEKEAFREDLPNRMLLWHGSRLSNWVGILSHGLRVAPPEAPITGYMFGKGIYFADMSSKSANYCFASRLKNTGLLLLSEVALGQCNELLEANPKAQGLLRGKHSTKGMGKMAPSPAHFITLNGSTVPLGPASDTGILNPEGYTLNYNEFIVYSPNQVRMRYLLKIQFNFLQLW

HMGB1 = HMGB1 (calf (thymus), UniProt P10103 2-215); test: photoaffinity crosslinking; 300 nM protein, 100 nM DNA, EDTA; more efficient than other DNAs; UV photo-crosslinking, 100 nM 5'-32P photoreactive DNA, EDTA present, Pol beta carried over from probe synthesis, SDS-PAGE; binding buffer, pH and temperature not given in the material; settings: protein: native; label: 5'-32P on strand 1; nicked duplex of 3 strands, blunt outer ends, 6-nt 5' single-stranded flap (GATAAC) at nick
Chain of HMGB1 (P10103 2-215): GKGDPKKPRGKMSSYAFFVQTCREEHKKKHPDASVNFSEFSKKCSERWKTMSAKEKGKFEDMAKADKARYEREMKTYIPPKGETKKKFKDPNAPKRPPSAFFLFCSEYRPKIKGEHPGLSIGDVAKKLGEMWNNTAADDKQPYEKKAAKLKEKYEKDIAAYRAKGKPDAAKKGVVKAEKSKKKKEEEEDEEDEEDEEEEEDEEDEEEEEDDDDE

Binder	binding result (PARP1)	binding result (PARP2)	binding result (HMGB1)
B1	binds	binds	–
B2	–	–	binds

— paper PMC6535076, “Poly(ADP-ribosyl)ation and DNA repair synthesis in the extracts of naked mole rat, mouse, and human cells”
